From paper PMC11550248

Biological target: voltage-dependent anion-selective channel 1 (VDAC1), purified from rat liver mitochondria (rat) (UniProt Q9Z2L0)
Assay: MST; VDAC1 (138 nM) or MAVS (105 nM) fluorescently labeled and kept constant, tested protein at different concentrations; 20mM Tris-HCl, 200mM NaCl, pH 8; 30 min at 37°C in the dark; Monolith NT.115, LED 20%, IR laser 80%

SARS-CoV-2 small envelope E-protein, purified (from UniProt P0DTC4 1-75) (natural protein)
C50 (half maximal binding): 1100 nM
